Measured values: US20250122303A1 (HUMMINGBIRD BIOSCIENCE PTE, published 2025)
Changes are numbered by the printed parent chain.

What was measured:
human HER3 polypeptide [1] = target: T1, human HER3 polypeptide (human, UniProt P21860 20-643); test: BLI; after 7 days at 40 °C/80% RH
T1 construct: Recombinant antigen of the ELISAs; also called human HER3 (Sino Biological Inc.); human antigen HER3

hCD16a [2] = target: T2, hCD16a (human, UniProt P08637 17-208, limits assumed); test: BLI; after 7 days at 40 °C/80% RH
T2 construct: also called human CD16a

human HER3 polypeptide [3] = target: T1, human HER3 polypeptide; test: BLI; day 0 of storage at 40 °C/80% RH
hCD16a [4] = target: T2, hCD16a; test: BLI; day 0 of storage at 40 °C/80% RH
human EGFR = target: T3, human EGFR (human, UniProt P00533 25-645); test: ELISA; plate coated with target polypeptide, absorbance 450 nm
T3 construct: also called human HER1 (EGFR) (Sino Biological Inc.)
Procedure: (§1) The antibodies were analysed for their ability to bind to human HER3 polypeptide as well as human HER1 (EGFR) and human HER2 (Sino Biological Inc., China).
(§2) ELISAs were carried out according to standard protocols. Plates were coated with 0.1 μg/ml of target polypeptide in phosphate-buffered saline (PBS) for 16 h at 4° C. After blocking for 1 h with 1% BSA in Tris buffer saline (TBS) at room temperature, the anti-HER3 antibody was serially diluted with the highest concentration being 10 μg/ml, and added to the plate. Post 1 h incubation at room temperature, plates were washed three times with TBS containing 0.05% Tween 20 (TBS-T) and were then incubated with a HRP-conjugated anti-His antibody (Life Technologies, Inc., USA) for 1 h at room temperature. After washing, plates were developed with colorimetric detection substrate 3,3′,5,5′-tetramethylbenzidine (Turbo-TMB; Pierce, USA) for 10 min. The reaction was stopped with 2M H₂SO₄, and OD was measured at 450 nm.

human HER2 = target: T4, human HER2 (human, UniProt P04626 23-652); test: as above
T4 construct: also called human HER2 (Sino Biological Inc.)
Procedure: as §1, §2

FcRn = target: T5, FcRn (human, UniProt P55899); test: Bio-Layer Interferometry (determined as described in Example 7)
T5 construct: recombinant; also called human FcRn; gene FCGRT (so in the source)

FcgRIIA (H167) = target: T6, FcgRIIA (H167) (human, UniProt P12318); test: as above
T6 construct: recombinant; also called CD32A; hFcγRIIa167H
T6 sequence (receptor, looked up): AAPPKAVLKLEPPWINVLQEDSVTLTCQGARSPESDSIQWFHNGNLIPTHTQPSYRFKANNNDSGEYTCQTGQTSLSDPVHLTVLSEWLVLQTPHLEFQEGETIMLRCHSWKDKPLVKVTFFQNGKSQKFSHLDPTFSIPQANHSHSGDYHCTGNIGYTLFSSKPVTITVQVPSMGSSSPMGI

FcgRIIA (R167) = target: T7, FcgRIIA (R167) (human, UniProt P12318); test: as above
T7 construct: recombinant; also called CD32A; hFcγRIIa167R
T7 sequence (receptor, looked up): T6 sequence (receptor, looked up) with H132R

[5] = target: T8, His-tagged FcγRIIIa (V158) (human, UniProt P08637 17-208); test: as above
T8 construct: not shown: His tag

Kd (human HER3 polypeptide [1]): < 0.001 nM
Kd (hCD16a [2]): 302 nM
Kd (human HER3 polypeptide [3]): < 0.001 nM
Kd (hCD16a [4]): 294 nM
binding result (human EGFR): no binding
binding result (human HER2): no binding
Kd (FcRn): 47.6 nM
Kd (FcgRIIA (H167)): 1800 nM
Kd (FcgRIIA (R167)): 976 nM
Kd [5]: 986 nM
B1: 10D1F.FcA (anti-HER3 clone 10D1_c89 IgG1) (antibody)
heavy: not shown
light: DIQMTQSPSSVSASVGDRVTITCKASQIVGSNVAWYQQKPGKAPEPLIYSASYLYSGVPSRFSGSGSGTDFTLTISSLQPEDFATYYCQQYSSHPLTFGQGTKLEIKRTVAAPSVFIFPPSDEQLKSGTASVVCLLNNFYPREAKVQWKVDNALQSGNSQESVTEQDSKDSTYSLSSTLTLSKADYEKHKVYACEVTHQGLSSPVTKSFNRGEC
notes: also called 10D1F.A; HMBD-001
